Experimental data reported in the DeepSol protein solubility set.

Experiment: soluble on expression in E. coli; label from the status in PepcDB or PDB records

Row | Sequence | soluble on expression in E. coli
1 | MRKNKLSFKEKAGAEQEECLCFCEGEASREAMFQAPIELPEGFVVDPAEAVANVTWNADSLSCVSDRCLIQTGPEPDEVGVQFAVRLQGTVTLLVSVSPVRNQYGQGDGAVSVIHNAEIDQVVYYSDESDDCPDISDITIENLVVVPPFYGSPLSVTGTIVLVPEPEPVYAFTANPNDQSVSVIDTNTDTVVTTIALPYNPAGIEITPDKSAVFVLHPNNNVISVIDYDTLTVTATILLDQPPRLIRFIPNHEFAYVFTGTAVYVIGIDTLTVDRSIPVEGYDVAIDPNGLFAYVLNFGIVQKVDLTTGEVTGTIERELIVSTIETNWPERYAYVLEQEFFFNYLTVIDLNTFTISSTQELEYEGEYRMFTSGAEVYLYDGFTGNLYSVSPNGAGVIGNVPQSATDYAFTPNGDFLYATRFIEQSIIVYNTDDYSEETVISLGVSPGAITILEHHHHHH | soluble
2 | MASGRQSGRDTEEYGGLSNSGISSGSHVKDTAYYERRRKNNAAAKKSRDRRRIKEDEIAIRAAYLERQNIELLCRIDALEVQLAAITSAKVTTAAAAAAALEHHHHHH | not soluble
3 | MKCYFRSFDAGIGDCNIIRLVKNEGEQYVIMVDCGSYTEPLKEYLQNALHNHIDLLIATHIDGDHIQGIATMLKKHEGLTVGEIWYNCYKRTKGAEYIELNDQQKAILKQIQKALPVEFDAINYREITATQGKTLAQTILCNEKFKGVWKTEYITSNTEDFDIPGGFGKIVFLAPRQEALKAIENKFKEAFDKYFMQAWNESIENVEELQELLIRLVDAYQDKFGGKQISAKNKPVYNVAFVRKQAKEEGADDSDTNCSSIAFMLECGEHRIAMLGDAFADIIEETIDNKYKDQAKPMECDAIKVSHHGSNGNSSKTLLDRINSHIYFIPGGKGEKYPAWGTFGRIAEKHKDDQAKLIVFSRQCTITEKMNGLNEEVKRELGVETIITEQEYELFEW | not soluble
4 | MSLTRDAASITPARVRAHVFRYPVSTPVKTSFGTMHDRPAVLVEVEDSDGAVGWGEVWCNFPACGAEHRARLVETVLAPLLTARAFADPAQAFAHLEARTAVLAIQTGEPGPLAQAIAGLDIALCDLAARRAGQPLWAWLGGSGDRIGVYASGINPENPEDVVARKAAEGYRAFKLKVGFDDARDVRNALHVRELLGAATPLMADANQGWDLPRARQMAQRLGPAQLDWLEEPLRADRPAAEWAELAQAAPMPLAGGENIAGVAAFETALAARSLRVMQPDLAKWGGFSGCLPVARAVVAAGLRYCPHYLGAGIGLQASAHLLAAVPGLASPGLLEVDANDNPLRSLLSPALATLHEGRITLGGAPGLGVTPDLAALRAACAAREGHHHHHH | soluble
5 | MLTYIILVLHLQNHVWEDVTVHNSSLPPLAIKHPECLGLLHQLERSTDVWIQHYCILKDGCLYFYASIRSTQASGGLYLQGYSVSEQTHGFEQPVIELKPSSEEFKTFYFCAENKTENQRWIAALKTSIKKWLPLDQAIQEFMSRPLEETRM | not soluble
6 | MSSTALLPPNTDQVLSRRLHGKAAEKKTGLAAIASKDVDEQSRKLQEYFEFWDRNHENESEEDRARRIDGYKSVVNSYYDLATDLYEYGWSQSFHFSRFYKGEAFAQSIARHEHYLAYRMGIKPGSRVLDVGCGVGGPAREITEFTGCNLVGLNNNDYQISRCNNYAVKRNLDKKQVFVKGDFMHMPFEDNTFDYVYAIEATVHAPSLEGVYGEIFRVLKPGGVFGVYEWVMSDDYDSSIPKHREIAYNIEVGDGIPQMVRKCDAVEAIKKVGFNLLEEDDLTDHDNPDLPWYYPLTGDITKCQNIWDVFTVFRTSRLGKLVTRYSVQFLEKIGVAAKGTSKVGDTLAIAQKGLIEGGETHLFTPMFLMIAKKPETDA | soluble
7 | MGSDKIHHHHHHAGSCTGNFEEYNTNQFQIHEADPSTLMKSMIETIVNIQQNDSQMMDQMVGQLGGYLTCANVWSGTNFGTFNQSDAWNAGPWNTNFEKIYGNFFQIQEATNESGHYYAFARMIRAITMLRVADCYGPMPYSQVKKGNFYVAYDTEEQVYKNIMEDFASAANVLYNYYKDTNGNAPLASNDPVFSGNYANWARLANSMRLRVAIRISTAYPEMAKENAEAAASHEAGLIEANNDNAMMDCGSQTNPYQLAAVSWGDLRVNANIVDYMNGYGDPRMSKYFNHSTFTGHTQEYVGMRSGEDGFAKSDVAGYSIPAITGTSKLLVFCAAETAFLRAEGKLKNWSVGNKSAKEYYEEGIKLSMEQYGTTMPDNYLTNTEKPTVSHNNDPRGHAYTISNTVAVAWNDNNEEENLQRIITQKWIANYPLGLEAWAEYRRTGYPELYPCIDNLSPSGVDSKRGMRRLRFPYTEVQNNHSNYQQGVSYLKNGGPDNEATDLSWGKTN | not soluble
8 | MEKELKALTKRLQQYNEQLLLIARRARERNEEPDFFGDVKPMAEEVQAVAERWKDAASRWVRHARPKYVHERQIEAAADHMAKLCVEAFYPSVPERRIKQYSQAVAYTLALVKERLDDTSEAGKERL | not soluble
9 | MSLDMKEWEIFYNKIMEDFGFDKDKDVESAVILNNILENANTIPVDKLKDIIEGREVFIFGAGPSIKKHINILKELREINYKNPIIVADGACKAFLEENIIPDIIVSDLDGDLEALFECNRKGSIIVVHAHGDNIEKIKKYVPKLKNVVGSCQIPNYKELNLRNVINFGGFTDGDRCCFLAYHFKAKKLILGGMDFGIYITKYSRPNIKEDIAIGDEIKIKKLEYAKTLINYLKDKIEIEFLKEGHHHHHH | soluble
10 | MSTQPDTSLRATKRLKTRISVEDAATALVLRDGFDNVTVEDICAAAEISKRTFFNYFDSKENAVFGDIQVDILPQLREEFLSHPHEDLPEAVIRLHMNLVFSGKDFDPHTRGEIIRRRKTIRHNNPERSFNYNALYHKVFINFKTLVNEYFEHFPEQRRLGGDVDVEATAVVLSSSYAIRFGFTLWADSPSASFSTLEESCLEALVHLRTINKGL | not soluble
11 | MSLKFVTIRDIAREAGVSINTVSRALNDKPDINVETKKKVLEVADRLGYIRDATAVSLRYGLTRVIGVILEDSSNPFYSEVLKGIEMAAKKKKFNVIFMNTERSYELENEAIKTMIGRRVDGMIISPTQEKCDDIKLLSEKGIPFVVLGVHFDELNVPEIYTDDEKGGYLATKHLIEIGRRRILFLNGFTYKSVAKMRLNGYRKALKEFGLEYDKSLVHEIEEGYENAYNKVKELLKKGIKFDSIFCFNDVFAIGAIGALKEEGIKVPQDIAVVGYDDIYFSKFISPSLTTVKIDKILEGKLAFEMLHGILTKKTGKNVKNVLDVELIVRESTIDKIGEGHHHHHH | soluble
12 | MSKQLLALNIDGALLRSNGKIHQATKDAIEYVKKKGIYVTLVTNRHFRSAQKIAKSLKLDAKLITHSGAYIAEKIDAPFFEKRISDDHTFNIVQVLESYQCNIRLLHEKYSIGNKKKVNSNLLGKALIHPSDPIFYPVQFVESLSDLLMDEPVSAPVIEVYTEHDIQHDITETITKAFPAVDVIRVNDEKLNIVPKGVSKEAGLALVASELGLSMDDVVAIGHQYDDLPMIELAGLGVAMGNAVPEIKRKADWVTRSNDEQGVAYMMKEYFRMQQRKGFLDKFHMKRV | not soluble
13 | MSLQKELARNQHLAERLLETEESVRRDVARELHDDIGQTITAIRTQAGIVQRLAADNASVKQSGQLIEQLSLGVYDAVRRLLGRLRPRQLDDLTLEQAIRSLMREMELEGRGIVSHLEWRIEESALSENQRVTLFRVCQEGLNNIVKHADASAVTLQGWLQDERLMLVIEDDGSGLPPGSGQQGFGLTGMRERVTALGGTLTISCLHGTRVSVSLPQRYVEGHHHHHH | soluble
14 | MADKSADIQTPAPAANTSISATQQPAIQQPNVSGTVWIRQKVALPPDAVLTVTLSDASLADAPSKVLAQKAVRTEGKQSPFSFVLSFNPADVQPNARILLSAAITVNDKLVFITDTVQPVINQGGTKADLTLVPVQQTAVPVQASGGATTTVPSTSPTQVNPSSAVPAPTQYLEHHHHHH | soluble
15 | MAIETAILEKIKQYQTIIIHRHQRPDPDCIGSQLALRAILRASFPEKTVVAVGKHYPGFDWMGQADQEVSDDTYHQALVIVVDTANQPRVDDERWQTGAAVIKIDHHPNDDAFGDLQWVLPQASSTSEIIYDWFEANHADLTMPDDAARLLYAGIVGDTGRFMYPATSANTFAVAGKLLAYDFSMTAVNQAEDEISPEMARLSAYAYQNLEILPSGAAYLKLTDEIVESFGLAASDSTSAIVPLPGKITSVVAWAIFVESKDKTFRVRLRSKGPSINELAKRHGGGGHALASGAAAKDQAEIDQVIHELDQLVADTKGENELEHHHHHH | soluble
